# Source: the nanobody polyreactivity screen of Harvey et al. (2022)
# Assay: yeast display, Sf9 membrane polyspecificity reagent, FACS + sequencing; frameworks hold sequencing errors
# Procedure, shortened: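 Galactose-induced (36–48 hours) yeast carrying a synthetic nanobody display library were exposed to 10% biotinylated, detergent-solubilized Sf9 membrane reagent at 4 °C for 1 hour. FACS followed streptavidin microbead enrichment, using low and high (top ~1%) gates for expression (anti-HA) and reagent binding (streptavidin). Colony PCR, MiSeq 2 × 250 sequencing and CDR-length filtering followed. Labels for polyreactivity reflect the gate of origin.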
row,Sequence,polyreactivity (PSR sort gate)
1,QVQLVDSGGGKVQAGGSLRLSCAASGRTFLVYAMGWYRQAPGKERELVAAISRSGGRTSYADSVKGRFTISRDNAKNTVYLQMNSLKPEDTAVYYCAASGPPCDMDYWGQGTQVTVSS,high polyreactivity
2,QVQLVESGGGLVQAGGSLRLSCAASGLKFAHYAMGWYRQAPGKERELVAAISRSGGRTRYADSVKGRFTISRDQAKNTVYLQMNSLKAEDTAVYYCAAVGSVNYDADFDYWGQGTQVTVSS,high polyreactivity
3,QVQLVESGGGLVQAGGSLSLSCAASGRTFNSYAMGWYRQAPGKERELVAAISWSGGSTYYADSVKGRFTISRDNAKNTVYLQMNSLKPEDTAVFYCATERYQSSRYRSYWYPFDYWGQGTQVTVSS,low polyreactivity
4,QVQLVESGGGIVQAGGSLRLSCAASGFTFWYYAMGWYRQAPGKERELVAVINTSGGSTYADSVKGRFTISRDNAKNTVYLQMNSLKPEDTAVYYCNKDFIYGYDAASYRPEYDYWGQGTQVTVSS,low polyreactivity
5,QVQLVESGGGLVQAGGSLRLSCAASGFTFYLYTMGWYRQAPGKERELVAAISWRGGGTYYADSVKGRFTISRDNAKNTVYLQMNSLKPEDTAVYYCAAYWRRRLDYYYWGQGTQVTVSS,high polyreactivity
6,QVQLVESGGGLVQAGGSLRLSCAASGRIFYHYAMGWYRQAPGKERELVAAITWSGVSTYYADSVKGRFTISRDNAKNTVYLQMNSLKPDDTAVYYCATSSRYGVRRYSRGSWGQGSQVTVSS,high polyreactivity
7,QVQLVESGRGLVQAGGSLRLSCAASGRIFSGNAMGWYRQAPGKERELVAGITWTGGRTYYAASVKGRFTISRDNAKNTVYLQMNSLKPEDTAVYYCAARYTRWSDLMYYWGQGTQVTVSS,high polyreactivity
8,QVQLVESGGGLVQAGGSLRLSCAASGSIFRYYAMGWYRQEPGKERELVAAISWDGGTTYYADSVKGRFTISRDNAKNTVYLQMNSLKPEDTGVYYCNVEFPLSSYGYDYWGQGTQVTVSS,low polyreactivity
9,QVQLVESGGGLVQAGGSLRLSCAASGATFGYYGMGWYRQAHGTERELVAAISTRGDSTYYADSVMGRFTISRDNAKNPVYLQMHSLKPEDPAGYYCAKSRQSSGRVRFDYWGQGTQVTVSS,low polyreactivity
10,QVQLVESGGGLVKAGGSLRLSCAASGRIFYGYAMGWYRQAPGKERELVAAITRSGTSTYYADSVKGRFTISRDNAKNTVYLQMHSLKPEDTAVYYCAAVERSLRSPYGDYGYWGHGTQVTVSS,high polyreactivity
11,QVQLVESGGGLVQAGGSLRLSCAASGITLYRYAMGWYRPAPGKERELVADISSGGGTTYYADSVKGRFTISRDNAKNTVSLQMNSLKPEDTALYYCAADYGFRYPLYDYWGQGTQVTVSS,low polyreactivity
12,QVQLVESGGGLVQAGCSLRLSCAASGSTFYYYAMGWYRQAPGKERELVAAISNRDGRTYYADSVKGRFTISRDTAKNTVYFQMNSLKPEDSAVYYCNAYSYGHYYWGHGTQVTVSS,high polyreactivity
13,QVQLVESGGGLVQAGGSLRLSCAASGSTFYAYVMGWYRQAPGKERELVAAIRSSGGRTYYADSVKGRFTISRDNAKNTLYLQMNSLKPEDSAVYYCAKAIWATRQYLRFTDYDYWGQGTQVTVSS,high polyreactivity
14,QVQLVESWGGLVQAGGSLRLSCAASGLTFNYYDMGWYRQAPGKERELVAAISRSGTNTSYADSVKGRFTISRDNAKNTVYLQMNSLKPEDTAVYYCNAAGVYLAAGPYTANFNYNYWGQGTQVTVSS,low polyreactivity
15,QVQLVESGGGLVQAGGSLRLSCAASGRIFRYYAMGWYRQAPGKERELVAAIDSVGSTYYADSVKGRFTISRDNAKNTVYLQMNSLKPEDTAVYYCNARVYTFPTRYDYWGQGTQVTVSS,high polyreactivity
16,QVQLVESVGGLVQAGGSLRLSCAASGFTFLWYAMGWYRQAPGKEWELVAAINSSGVRTYYADSVKGRFTISRDNAKNTVYLLMNSLKPEDTAVYYCAAYQKTYTEDEYWGQGTQVTVSS,high polyreactivity
17,QVQLVESGGGLVQAGGSLRLSCAASGSIFGFNAMGWYRQAPGTERELVAAITWSGVSTYYADSVKGRFTISRDNAKNTVYLQMNSLKPEDTAVYYCAADVIIDWWYEMDYWGQGTQVTVSS,high polyreactivity
